In assay [1] the target is T1, Siglec-9 protein (construct not stated; antigen of Examples 3 and 4) (human, UniProt Q9Y336 18-348, limits assumed). As to the kind of experiment: ELISA, coated Siglec-9 1 µg/ml, antibody titrated, Abs 450 nm, three-parameter fit, n=3. The procedure: (§1) FIG. 2: Binding curves of monoclonal antibodies (68D4 and 224B1; comparative monoclonal antibodies mAbA and 5C6 & negative control 53C3) towards Siglec-9 as analysed by ELISA. Binding of the monoclonal antibody to Siglec-9, as determined by measurement of the accumulated coloured product at 450 nm after stopping the reaction, is plotted against the concentration of the monoclonal antibody under evaluation.
(§2) Antibody binding affinity towards Siglec-9 was measured by a dilution series of the analysed antibodies on a fixed concentration of Siglec-9 protein in ELISA. To this end, Siglec-9 was coated at 1 μg/ml in 50 mM carbonate-bicarbonate buffer pH 9.6 for 15-20 hours at 4° C. Antigen solution was washed away (Tecan Hydrospeed) and plates were blocked with 5% skimmed milk in phosphate-buffered saline (PBS) for 1 hour at room temperature. Plates were washed and antibodies were added at concentrations of 0-420 nM. After incubation at room temperature for 1 hour plates were washed once more. Bound antibodies were detected by addition of horseradish peroxidase (HRP)-coupled secondary antibodies. Rabbit antibodies were detected by polyclonal anti-rabbit IgG antibody (Biolegend), mAbA by anti-human Fab fragment (Sigma Aldrich). After a last washing step, plates were developed by the addition of 3,3′,5,5′-Tetramethylbenzidine (TMB; Sigma Aldrich). Reaction was stopped by addition of sulfuric acid. Absorbance was detected at 450 nm (Tecan, CM […] MONO 200). Data were fitted and EC50 values were determined by three-parameter analysis in GraphPad Prism (GraphPad Software)
(In general: An ELISA detects its analyte on a solid surface through an enzyme-linked reagent.)

In assay [2] the target is T2, Siglec-9 expressed on cells (human, UniProt Q9Y336 18-463).
T2 construct: also called monocyte-expressed Siglec-9
Kind of assay: flow cytometry on human CD14+ monocytes (PBMC), mean RFU of the secondary antibody, three-parameter fit. The procedure: Human ex vivo PBMC were stained with fluorescence-labeled (allophycocyanin, APC) antibody to the monocyte marker CD14 (Biolegend) in assay buffer (0.5% (v/v) heat-inactivated fetal bovine serum (Gibco), 2 mM EDTA in phosphate-buffered saline). Subsequently, cells were incubated with antibodies under evaluation at various concentrations (67 nM-0.38 pM). After a washing step cells were incubated with fluorescence-labeled (Brilliant Violet 421™) secondary antibody against human IgG (mAbA) or rabbit IgG (all other monoclonal antibodies under evaluation; both secondary antibodies from Biolegend).
Binding of Siglec-9-specific antibodies to monocytes (CD14-positive life cells) was analysed with a CytoFLEX flow cytometer (Beckham Coulter's). The mean fluorescence intensity of the secondary antibody staining in the CD14-positive population at each dilution was determined using Flow Jo software (BD). Datapoints generated by this analysis were fitted and EC50 values were determined by three-parameter analysis in GraphPad Prism (GraphPad Software)

Assay [3] addresses T3, Siglec-8-Fc (R&D systems) (UniProt Q9NYZ4 17-363, limits assumed).
T3 construct: Bought reagent; not shown: Fc part of the bought fusion; not described
Kind of assay: ELISA, coated Siglec-8-Fc 1 µg/ml, single antibody concentration, Abs 450 nm, n=3. The procedure: (§3) Specificity towards Siglec-5, Siglec-7, Siglec-8, Siglec-15 and Siglec-9 was assayed in enzyme-linked immunosorbent assay (ELISA) using 96 well half-area ELISA plates (Corning). Siglec-5-Fc (R&D systems), Siglec-7-Fc (in-house production, Siglec-7-Fc protein used had the following amino acid sequence:
(§4) (SEQ ID NO: 59)) […] […] […] […] […] […] […] […] […] […] […] […], Siglec-8-Fc (R&D systems), Siglec-15- Fc (R&D systems) and Siglec-9-Fc (in-house production, SEQ ID NO: 11) were coated at 1 μg/ml in 50 mM carbonate-bicarbonate buffer pH 9.6 for 15-20 hours at 4° C.
(§5) Antigens were washed away (Tecan Hydrospeed) and plates were blocked with 5% skimmed milk in phosphate-buffered saline (PBS). After washing the plates, antibodies were added at 5 μg/ml (33 nM) in 0.5% milk PBS in triplicates. Plates with antibodies were incubated for 1 hour at room temperature. Plates were washed and bound antibodies were detected by horseradish peroxidase (HRP)-labeled polyclonal anti-rabbit IgG antibody (Biolegend) or anti-human Fab fragment for mAbA (Sigma Aldrich). 3,3′,5,5′-Tetramethylbenzidine (TMB; Sigma Aldrich) development was stopped by addition of sulfuric acid and absorbance was detected at 450 nm (Tecan, CM […] MONO 200).

For assay [4], the target named is T4, Siglec-5-Fc (R&D systems) (UniProt O15389 17-434, limits assumed).
T4 construct: Bought reagent; not shown: Fc part of the bought fusion; not described
T4 sequence (looked up): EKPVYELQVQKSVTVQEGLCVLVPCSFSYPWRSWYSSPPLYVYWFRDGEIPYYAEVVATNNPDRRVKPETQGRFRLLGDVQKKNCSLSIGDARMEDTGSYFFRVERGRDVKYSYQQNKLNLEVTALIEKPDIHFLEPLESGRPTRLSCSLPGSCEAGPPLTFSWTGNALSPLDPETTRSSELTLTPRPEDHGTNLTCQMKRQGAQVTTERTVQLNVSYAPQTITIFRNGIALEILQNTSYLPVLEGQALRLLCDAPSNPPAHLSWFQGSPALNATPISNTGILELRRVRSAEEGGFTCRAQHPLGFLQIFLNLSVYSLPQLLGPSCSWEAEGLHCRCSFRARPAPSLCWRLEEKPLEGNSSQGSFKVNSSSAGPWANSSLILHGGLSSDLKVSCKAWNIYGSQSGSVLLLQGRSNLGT
Kind of assay: ELISA, coated Siglec-5-Fc 1 µg/ml, single antibody concentration, Abs 450 nm, n=3. The procedure: as §3, §4, §5

Assay [5] addresses extra-cellular domain of Siglec-9 fused to a C-terminal his-tag (Homo sapiens (Human), UniProt Q9Y336 18-348). Kind of assay: ELISA, coated his-tagged Siglec-9 extracellular domain, anti-human Fc gamma detection, Abs 450 nm. The source says: (SEQ ID NO: 44) […] […] […] […] […] […] […]. For detection of bound IgG either polyclonal anti- rabbit IgG antibody (68D4; Biolegend, #406401), or anti-human Fey fragment (humanized 68D4 and mAbA; Jackson Immuno Research laboratories, #109-035-098) were used.

Assay [6] has as its target T4, Siglec-5-Fc (R&D systems). As to the kind of experiment: ELISA, coated Siglec-5-Fc 1 µg/ml, single antibody concentration, anti-human Fab detection, Abs 450 nm, n=3. As to the method: as §3, §4, §5
The target of assay [7] is T1, Siglec-9 protein (construct not stated; …). As to the kind of experiment: ELISA, coated Siglec-9 1 µg/ml, antibody titrated, anti-human Fab detection, Abs 450 nm, three-parameter fit, n=3. As to the method:
as §1
as §2, with “After incubation at room temperature for 1 hour plates were washed once more.” left out, “After a last washing step, plates were developed by the addition of 3,3′,5,5′-Tetramethylbenzidine (TMB; Sigma Aldrich). Reaction was stopped by addition of sulfuric acid.” left out

T1 sequence (Q9Y336 18-348 limits assumed): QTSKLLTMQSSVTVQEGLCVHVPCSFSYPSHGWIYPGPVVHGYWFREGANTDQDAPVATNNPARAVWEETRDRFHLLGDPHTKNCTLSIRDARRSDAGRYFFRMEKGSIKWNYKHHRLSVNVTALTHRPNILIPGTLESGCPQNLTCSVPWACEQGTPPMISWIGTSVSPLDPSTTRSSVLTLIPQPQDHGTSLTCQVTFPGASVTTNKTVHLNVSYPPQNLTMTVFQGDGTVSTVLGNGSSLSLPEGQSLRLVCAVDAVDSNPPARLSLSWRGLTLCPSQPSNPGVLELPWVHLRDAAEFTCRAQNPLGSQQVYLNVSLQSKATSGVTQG
T2 sequence (Q9Y336 18-463 limits assumed): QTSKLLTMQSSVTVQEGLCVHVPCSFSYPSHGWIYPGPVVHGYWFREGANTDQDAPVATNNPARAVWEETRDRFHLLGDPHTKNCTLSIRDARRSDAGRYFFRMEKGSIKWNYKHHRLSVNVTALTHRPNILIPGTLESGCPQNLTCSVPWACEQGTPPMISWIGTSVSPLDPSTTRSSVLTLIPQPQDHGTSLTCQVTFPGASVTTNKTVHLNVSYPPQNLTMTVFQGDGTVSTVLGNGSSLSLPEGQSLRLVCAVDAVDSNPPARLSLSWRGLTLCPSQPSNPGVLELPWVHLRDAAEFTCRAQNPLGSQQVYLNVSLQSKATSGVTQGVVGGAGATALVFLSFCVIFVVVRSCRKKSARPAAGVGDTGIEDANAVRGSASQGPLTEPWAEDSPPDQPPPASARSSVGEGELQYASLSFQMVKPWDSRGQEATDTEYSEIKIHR
Chain of extra-cellular domain of Siglec-9 fused to a C-terminal his-tag (Q9Y336 18-348 limits assumed): as the sequence (Q9Y336 18-348 limits assumed) above
T3 sequence (Q9NYZ4 17-363 limits assumed): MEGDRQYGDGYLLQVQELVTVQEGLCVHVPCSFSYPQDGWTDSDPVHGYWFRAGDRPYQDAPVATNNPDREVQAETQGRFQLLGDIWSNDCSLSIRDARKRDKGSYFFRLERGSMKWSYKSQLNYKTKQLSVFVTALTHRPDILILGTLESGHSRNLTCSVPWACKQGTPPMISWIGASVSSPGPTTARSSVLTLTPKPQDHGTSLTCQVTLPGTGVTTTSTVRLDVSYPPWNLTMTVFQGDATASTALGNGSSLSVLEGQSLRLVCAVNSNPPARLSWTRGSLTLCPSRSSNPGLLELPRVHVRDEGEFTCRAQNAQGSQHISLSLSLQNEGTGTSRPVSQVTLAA

B1: monoclonal antibody 224B1 (rabbit) (antibody, V domains shown)
VH: QSVEESGGRLVTPETPLTLTCTASGFSLSSYYMSWVRQAPGKGLEWIGYIWTDGSAHYATWTKGRFTISKTSSTTVDLKITSPTTEDTATYFCVRANSGSHTYIEKFNLWGPGTLVTVSS
VL: DVVMTQTPASVEATVGGSVTIKCQASPSINDELSWYQQKPGQRPTLLIYEASALESGVPSRFKGSGSGTEFTLTIGDLECADAATYYCQCTYGSRSDISYGNTFGGGTEVVVKG
As to B1, the EC50 in assay [1] was 0.1 nM; in assay [2], 0.4 nM. Besides, the binding result in assay [3] and in assay [4] was “no binding (tested: 5 µg/ml)” each time.

B2: comparative monoclonal antibody mAbA (WO 2017/153433), mouse-human chimera (antibody, human IgG1, kappa, V domains shown)
VH: QVQLQQPGAELVKPGSPVKLSCKASYFTFTSYWMHWVRQRPGQGLEWIGEINPSNGHTNYNEKFESKATLTVDRSSSTAYMQLSSLTSEDSAVFYCANGVESYDFDDALDYWGQGTSVTVSS
VL: DIQMTQTTSSLSASLGDRVTISCRASQDINNYLNWYQQKPDGTIKLLIYYTSRLHSGVPSRFSGSGSGTDYSLTINNLEQEDIATYFCQQGNTLPFTFGGGTKLEIKR
Turning to B2, in assay [5], the “EC50 (read off the curve)” value is around 0.06 nM. For the same molecule, in assay [6], the binding result was “no binding (tested: 5 µg/ml)”. In assay [7], the EC50 was 0.42 nM.

For orientation: EC50 means the concentration needed to bring the measured effect to its halfway point. For orientation: EC50 (read off the curve) means the concentration that produces a half-maximal response. Lower therefore signals greater potency.

The values above are taken from patent US20230009582A1 (MEMO THERAPEUTICS, published 2023).
